This note sets out measurements from publication PMC2877774, “Structural and Biochemical Bases for the Redox Sensitivity of Mycobacterium tuberculosis RslA” (Journal of Molecular Biology, 2010).

In general, Kd refers to the equilibrium constant for the complex coming apart. Higher therefore signals weaker binding. Broadly, the stoichiometry N is the number of molecules, sites or subunits per partner or assembly.

To fix the notation:
B1: σ2^L domain of Mycobacterium tuberculosis σ^L (domain or fragment)
chain: MARVSGAAAAEAALMRALYDEHAAVLWRYALRLTGDAAQAEDVVQETLLRAWQHPEVIGDTARPARAWLFTVARNMIIDERRSARFRNVV
B2: Anti-σ domain (ASD) of Mycobacterium tuberculosis RslA (residues 1–108), Zn2+-bound (domain or fragment)
chain: MTMPLRGLGPPDDTGVREVSTGDDHHYAMWDAAYVLGALSAADRREFEAHLAGCPECRGAVTELCGVPALLSQLDRDEVAAISESAPTVVASGLSPELLPSLLAAVHR
notes: Anti-sigma-L factor RslA, Mycobacterium tuberculosis, cytosolic anti-sigma domain, residues 1-108; also called holo-RslA; Mtb RslA
B3: Apo-RslA: anti-σ domain of Mycobacterium tuberculosis RslA (residues 1–108), Zn2+-free, oxidized (domain or fragment)
chain: B2 chain
modifications: disulfide bond between Cys54 and Cys57 in oxidized apo-RslA; Zn2+ removed
notes: For SPR the Zn2+ was removed on the chip with 10 mM H2O2 and 2 mM TPEN; in solution with 1 mM H2O2 and 5 mM TPEN; also called Zn^2+-free RslA; oxidized RslA

Where “and” joins values, the source holds several entries; their conditions need not be identical. Equal values may be shown once.

The target in series [1] is B2. Briefly: SPR; BIACORE 2000; RslA immobilised on a CM5 chip at 12 ng/mm2; σ^L, σ2^L, σ4^L as analytes; 20 mM Tris-HCl pH 7.8, 200 mM NaCl, 50 mM imidazole, 1 mM DTT (holo-RslA). The conditions noted are these: both partners purified. Background: SPR reads the build-up and loss of mass on a sensor chip optically.
Series [2] concerns the molecule itself. Briefly: SEC + other: dynamic light scattering.

In turn, B1 showed a Kd in series [1] of around 2 µM.

With B2, in series [2], the “stoichiometry N” value was 2 and 4.

For the molecule B3, in series [2], the “stoichiometry N” value was 2 and 4.
